Reference: PMC9405506, “Thermostable and O2-Insensitive Pyruvate Decarboxylases from Thermoacidophilic Archaea Catalyzing the Production of Acetaldehyde” (Biology, 2022)

Tests used:
[1] = substrate: CC(=O)C(=O)O; experiment: purified protein; format: biochemical, Saccharolobus solfataricus; conditions: POR (oxidative decarboxylation) reaction, 0.1 mM CoA, 1 mM benzyl viologen, 50 µM sodium dithionite, anaerobic, pH 8.0, 80 °C
[2] = substrate: CC(=O)C(=O)O; experiment: PDC activity: acetaldehyde by DNPH derivatization and HPLC, Michaelis-Menten fit; format: biochemical, Saccharolobus solfataricus; conditions: PDC (non-oxidative decarboxylation) reaction, 0.1 mM CoA, 100 mM sodium phosphate pH 7.9, 80 °C
Text: PDC activity: acetaldehyde by DNPH derivatization and HPLC, Michaelis-Menten fit on SsPOR/PDC

B1: SsPOR/PDC (Saccharolobus solfataricus) (protein)
chain 1: MRISWMIGGAQGSGVDTSANIFGNAVAASGYYIYGNREYYSNIKGRHSYFNLTISDKPPRSIAQQIEILTSFDAETIFQHFNEVKDVLIYSTEVENTKAEQVQSMEPEITEHVVKFLKEKGYGTTVKDVINYLKKEKGVKVIPIDYMEILKKVADQAKVQLSVADRARNTIAIAASYKLLGLKEQYLINSITRTFRQEVFAKINTIAAQLAMQQIQPMYNLPELPNNEEKINLDGNTAAAIGKIYGGLRFQSYYPITPASDESVFIEAHQTVFTVDPKTGEKRKSTIVVVQAEDELAAINMASGAALTGVRAATATSGPGFSLMVEGMGWAGMNEVPVVITYYIRGGPSTGQPTRTSQADLMFALNAGHGEFPRIVIASGDHVEAFHDGTWALNLAQKYQTPVIHLVDKALANSYSIIPKKTLGMENIRIEKGKIVINTNTPELKRFEITEDGISPFAPLGTARVHYTGDEHDEYGFIAEASENREKMYEKRIKKLMTADKEIPEESRVNVYGNTDSKVAIITWGSPKGAILDAMEELENEGIKPMLIQIRMFSPFPKNLMRKLLNGKEFIIDVESNYFGQAGEVLKLNTGIEPTHYILKWNGRPMMRDEVKEGIKAVVQKGERRVVLHGGA
chain 2: MAGLKVEWNDWCPGCGNFGILSAEQQAIQELGLDPKKVVLVSGIGCSGKIPHFIRLPASGVHTLHGRALTFAIGIKLANPSLEVIVNGGDGDQLGIGVGHFVSAGRRNVDLTVIVHNNGVYGLTKGQASPTLKLGVKTKSLPKPNINSDINPIALAISSGYTFVARGYAYDVKHLKEIIKKAIKHKGLAMIDVLQPCPTYNDIHTKEYYDKRVYKLDEDPSWDPIVKKPEEMDDKMSKAILKSMEWGDRTPIGIFYQNELVSTYEQRIAERSPSYLDNPPAHDVIEFEGKPTTDVEDILKERRVT
notes: native, purified from cells by DEAE-Sepharose, hydroxyapatite and phenyl-Sepharose; heterodimer (alpha-beta), subunits 37 and about 65 kDa
Km [1]: 500 ± 100 µM | Vmax [1]: 6.3 µmol/min/mg | Km [2]: 1100 ± 200 µM | Vmax [2]: 0.12 µmol/min/mg
